Our source for the ratio to parent values is publication PMC5457524, “An engineered high affinity Fbs1 carbohydrate binding protein for selective capture of N-glycans and N-glycopeptides” (Nature Communications, 2017).

Sequences and labels used below:
B1: SNAP-Fbs1 fusion protein (wild-type human Fbs1 sugar-binding domain, residues 92-296) [human] / fetuin [modified: sialylated complex N-linked glycans; sialylated complex N-linked glycans] [not stated] (parent)
chain 1: CQQEGLVPEGGVEEERDHWQQFYFLSKRRRNLLRNPCGEEDLEGWCDVEHGGDGWRVEELPGDSGVEFTHDESVKKYFASSFEWCRKAQVIDLQAEGYWEELLDTTQPAIVVKDWYSGRSDAGCLYELTVKLLSEHENVLAEFSSGQVAVPQDSDGGGWMEISHTFTDYGPGVRFVRFEHGGQDSVYWKGWFGARVTNSSVWVEP
chain 2: IPLDPVAGYKEPACDDPDTEQAALAAVDYINKHLPRGYKHTLNQIDSVKVWPRRPTGEVYDIEIDTLETTCHVLDPTPLANCSVRQQTQHAVEGDCDIHVLKQDGQFSVLFTKCDSSPDSAEDVRKLCPDCPLLAPLNDSRVVHAVEVALATFNAESNGSYLQLVEISRAQFVPLPVSVSVEFAVAATDCIAKEVVDPTKCNLLAEKQYGFCKGSVIQKALGGEDVRVTCTLFQTQPVIPQPQPDGAEAEAPSAVPDAAGPTPSAAGPPVASVVVGPSVVAVPLPLHRAHYDLRHTFSGVASVESSSGEAFHVGKTPIVGQPSIPGGPVRLCPGRIRYFKI

In this test the parent is B1. The test is described as follows: fetuin bead pulldown, SDS-PAGE quantified by ImageJ. Particulars: with fetuin [modified: sialylated complex N-linked glycans, E. coli cell lysate containing the same amount of wt Fbs1 or variant Fbs1 fusion protein, parent: 1, read off a plot.
As to chain 1 D63P S64P, the ratio to parent stood at 1.7 fold change.

As to chain 1 D63P S64P G65S, the ratio to parent came out at 2.5 fold change.
